biological target: T1, human C5 (human, UniProt P01031 19-673; P01031 678-1676, Beta and alpha chains are disulfide-linked and the protein is glycosylated.); test: Biacore, captured antibody, pH 7.4, 37 C;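 also: biacore binding response of anti-C5 antibody light chain variants captured on chip with human C5 injected, ACES running buffer containing 1.2 mM CaCl₂, parent light chain antibody set to 100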
T1 construct: Either in-house recombinant C5 or plasma derived C5 (CALBIOCHEM) was used; also called recombinant human C5; plasma derived human C5
Protocol: The light chain variants were tested for the binding affinity to C5 at pH 7.4 and at 37 degrees C. using Biacore T200 instrument (GE Healthcare) or Biacore 4000 instrument (GE Healthcare). […] Anti-C5 antibodies were captured on an immobilized molecule, and then human C5 was injected. The running buffer used was pH 7.4 ACES Buffer containing 1.2 mM Ca (20 mM ACES, 150 mM NaCl, 1.2 mM CaCl₂, 0.05% Tween 20). A value, % binding, was determined by normalizing binding response with that of antibody comprising parent light chain as 100.

Row | Binder | % binding (parent = 100) [%]
1 | CFP0018 (antibody, V domains shown, IgG format) VH: QVQLVQSGAEVKKPGSSVKVSCKASGGTFSSYAISWVRQAPGQGLEWMGGIIPIFGTANYAQKFQGRVTITADESTSTAYMELSSLRSEDTAVYYCARQLYGYYELDIWGQGTLVTVSS VL: DIQMTQSPSSLSASVGDRVTITCRASQSISDDLAWYQQKPGKAPKLLIYEASSLQSGVPSRFSGSGSGTDFTLTISSLQPEDFATYYCQQYNSYPLTFGQGTKVEIK | 100
2 | CFP0018 18L 30E (antibody, V domains shown) VH: QVQLVQSGAEVKKPGSSVKVSCKASGGTFSSYAISWVRQAPGQGLEWMGGIIPIFGTANYAQKFQGRVTITADESTSTAYMELSSLRSEDTAVYYCARQLYGYYELDIWGQGTLVTVSS VL: DIQMTQSPSSLSASVGDRVTITCRASQSIEDDLAWYQQKPGKAPKLLIYEASSLQSGVPSRFSGSGSGTDFTLTISSLQPEDFATYYCQQYNSYPLTFGQGTKVEIK | 20.8
3 | CFP0017 17L 91Y (antibody, V domains shown) VH: QVQLVQSGAEVKKPGSSVKVSCKASGGTFSSYAISWVRQAPGQGLEWMGGIIPIFGTANYAQKFQGRVTITADESTSTAYMELSSLRSEDTAVYYCARGGWWGGALDYWGQGTLVTVSS VL: DIQMTQSPSSLSASVGDRVTITCRASQSIEDDLAWYQQKPGKAPKLLIYHASSLQSGVPSRFSGSGSGTDFTLTISSLQPEDFATYYCQQYDSYPLTFGQGTKVEIK | 0.3
4 | CFP0018 18L 30D (antibody, V domains shown) VH: QVQLVQSGAEVKKPGSSVKVSCKASGGTFSSYAISWVRQAPGQGLEWMGGIIPIFGTANYAQKFQGRVTITADESTSTAYMELSSLRSEDTAVYYCARQLYGYYELDIWGQGTLVTVSS VL: DIQMTQSPSSLSASVGDRVTITCRASQSIDDDLAWYQQKPGKAPKLLIYEASSLQSGVPSRFSGSGSGTDFTLTISSLQPEDFATYYCQQYNSYPLTFGQGTKVEIK | 17
5 | CFP0017 17L 30S (antibody, V domains shown) VH: QVQLVQSGAEVKKPGSSVKVSCKASGGTFSSYAISWVRQAPGQGLEWMGGIIPIFGTANYAQKFQGRVTITADESTSTAYMELSSLRSEDTAVYYCARGGWWGGALDYWGQGTLVTVSS VL: DIQMTQSPSSLSASVGDRVTITCRASQSISDDLAWYQQKPGKAPKLLIYHASSLQSGVPSRFSGSGSGTDFTLTISSLQPEDFATYYCQQSDSYPLTFGQGTKVEIK | 79.1
6 | CFP0017 17L 92S (antibody, V domains shown) VH: QVQLVQSGAEVKKPGSSVKVSCKASGGTFSSYAISWVRQAPGQGLEWMGGIIPIFGTANYAQKFQGRVTITADESTSTAYMELSSLRSEDTAVYYCARGGWWGGALDYWGQGTLVTVSS VL: DIQMTQSPSSLSASVGDRVTITCRASQSIEDDLAWYQQKPGKAPKLLIYHASSLQSGVPSRFSGSGSGTDFTLTISSLQPEDFATYYCQQSSSYPLTFGQGTKVEIK | 79
7 | CFP0017 17L 30D (antibody, V domains shown) VH: QVQLVQSGAEVKKPGSSVKVSCKASGGTFSSYAISWVRQAPGQGLEWMGGIIPIFGTANYAQKFQGRVTITADESTSTAYMELSSLRSEDTAVYYCARGGWWGGALDYWGQGTLVTVSS VL: DIQMTQSPSSLSASVGDRVTITCRASQSIDDDLAWYQQKPGKAPKLLIYHASSLQSGVPSRFSGSGSGTDFTLTISSLQPEDFATYYCQQSDSYPLTFGQGTKVEIK | 89.4
8 | CFP0017 17L 91R (antibody, V domains shown) VH: QVQLVQSGAEVKKPGSSVKVSCKASGGTFSSYAISWVRQAPGQGLEWMGGIIPIFGTANYAQKFQGRVTITADESTSTAYMELSSLRSEDTAVYYCARGGWWGGALDYWGQGTLVTVSS VL: DIQMTQSPSSLSASVGDRVTITCRASQSIEDDLAWYQQKPGKAPKLLIYHASSLQSGVPSRFSGSGSGTDFTLTISSLQPEDFATYYCQQRDSYPLTFGQGTKVEIK | -4
9 | CFP0017 17L 92N (antibody, V domains shown) VH: QVQLVQSGAEVKKPGSSVKVSCKASGGTFSSYAISWVRQAPGQGLEWMGGIIPIFGTANYAQKFQGRVTITADESTSTAYMELSSLRSEDTAVYYCARGGWWGGALDYWGQGTLVTVSS VL: DIQMTQSPSSLSASVGDRVTITCRASQSIEDDLAWYQQKPGKAPKLLIYHASSLQSGVPSRFSGSGSGTDFTLTISSLQPEDFATYYCQQSNSYPLTFGQGTKVEIK | 36.4
10 | CFP0017 17L 30A (antibody, V domains shown) VH: QVQLVQSGAEVKKPGSSVKVSCKASGGTFSSYAISWVRQAPGQGLEWMGGIIPIFGTANYAQKFQGRVTITADESTSTAYMELSSLRSEDTAVYYCARGGWWGGALDYWGQGTLVTVSS VL: DIQMTQSPSSLSASVGDRVTITCRASQSIADDLAWYQQKPGKAPKLLIYHASSLQSGVPSRFSGSGSGTDFTLTISSLQPEDFATYYCQQSDSYPLTFGQGTKVEIK | 79.9
11 | CFP0017 17L 30H (antibody, V domains shown) VH: QVQLVQSGAEVKKPGSSVKVSCKASGGTFSSYAISWVRQAPGQGLEWMGGIIPIFGTANYAQKFQGRVTITADESTSTAYMELSSLRSEDTAVYYCARGGWWGGALDYWGQGTLVTVSS VL: DIQMTQSPSSLSASVGDRVTITCRASQSIHDDLAWYQQKPGKAPKLLIYHASSLQSGVPSRFSGSGSGTDFTLTISSLQPEDFATYYCQQSDSYPLTFGQGTKVEIK | 52.1
12 | CFP0017 17L 50A (antibody, V domains shown) VH: QVQLVQSGAEVKKPGSSVKVSCKASGGTFSSYAISWVRQAPGQGLEWMGGIIPIFGTANYAQKFQGRVTITADESTSTAYMELSSLRSEDTAVYYCARGGWWGGALDYWGQGTLVTVSS VL: DIQMTQSPSSLSASVGDRVTITCRASQSIEDDLAWYQQKPGKAPKLLIYAASSLQSGVPSRFSGSGSGTDFTLTISSLQPEDFATYYCQQSDSYPLTFGQGTKVEIK | 3.3
13 | CFP0018 18L 30A (antibody, V domains shown) VH: QVQLVQSGAEVKKPGSSVKVSCKASGGTFSSYAISWVRQAPGQGLEWMGGIIPIFGTANYAQKFQGRVTITADESTSTAYMELSSLRSEDTAVYYCARQLYGYYELDIWGQGTLVTVSS VL: DIQMTQSPSSLSASVGDRVTITCRASQSIADDLAWYQQKPGKAPKLLIYEASSLQSGVPSRFSGSGSGTDFTLTISSLQPEDFATYYCQQYNSYPLTFGQGTKVEIK | 21.2
14 | CFP0017 17L 50E (antibody, V domains shown) VH: QVQLVQSGAEVKKPGSSVKVSCKASGGTFSSYAISWVRQAPGQGLEWMGGIIPIFGTANYAQKFQGRVTITADESTSTAYMELSSLRSEDTAVYYCARGGWWGGALDYWGQGTLVTVSS VL: DIQMTQSPSSLSASVGDRVTITCRASQSIEDDLAWYQQKPGKAPKLLIYEASSLQSGVPSRFSGSGSGTDFTLTISSLQPEDFATYYCQQSDSYPLTFGQGTKVEIK | 1
15 | CFP0017 (antibody, V domains shown, IgG format) VH: QVQLVQSGAEVKKPGSSVKVSCKASGGTFSSYAISWVRQAPGQGLEWMGGIIPIFGTANYAQKFQGRVTITADESTSTAYMELSSLRSEDTAVYYCARGGWWGGALDYWGQGTLVTVSS VL: DIQMTQSPSSLSASVGDRVTITCRASQSIEDDLAWYQQKPGKAPKLLIYHASSLQSGVPSRFSGSGSGTDFTLTISSLQPEDFATYYCQQSDSYPLTFGQGTKVEIK | 100
16 | CFP0017 17L 91H (antibody, V domains shown) VH: QVQLVQSGAEVKKPGSSVKVSCKASGGTFSSYAISWVRQAPGQGLEWMGGIIPIFGTANYAQKFQGRVTITADESTSTAYMELSSLRSEDTAVYYCARGGWWGGALDYWGQGTLVTVSS VL: DIQMTQSPSSLSASVGDRVTITCRASQSIEDDLAWYQQKPGKAPKLLIYHASSLQSGVPSRFSGSGSGTDFTLTISSLQPEDFATYYCQQHDSYPLTFGQGTKVEIK | 21.8

From patent US20180016327A1 (Chugai, published 2018)
